Data: FireProtDB (doi:10.1021/bi020450z)

B1: Adrenodoxin, mitochondrial, P00257 (parent)
chain: MAARLLRVASAALGDTAGRWRLLARPRAGAGGLRGSRGPGLGGGAVATRTLSVSGRAQSSSEDKITVHFINRDGETLTTKGKIGDSLLDVVVQNNLDIDGFGACEGTLACSTCHLIFEQHIFEKLEAITDEENDMLDLAYGLTDRSRLGCQICLTKAMDNMTVRVPDAVSDARESIDMGMNSSKIE

Variants of: B1
Conditions: Bos taurus, reversible: YES, structure 1AYF, whole UniProt chain shown; for denaturant m value / denaturant midpoint (higher = more stable) / unfolding free energy: pH 7.5, 20 °C, GdnHCl, Fluorescence, Tris-HCl 50 mM; for Tm / change of melting temperature, mutant - wild type (higher = more stable): pH 8.5, Thermal, CD, Glycine

Variant | denaturant m value [kcal/mol/M] | denaturant midpoint (higher = more stable) [M] | unfolding free energy [kcal/mol] | Tm [°C] | change of melting temperature, mutant - wild type (higher = more stable) [°C]
MAARLLRVASAALGDTAGRWRLLARPRAGAGGLRGSRGPGLGGGAVATRTLSVSGRAQSSSEDKITVHFINRDGETLTTKGKIGDSLLDVVVQNNLDIDGWGACEGTLACSTCHLIFEQHIFEKLEAITDEENDMLDLAYGLTDRSRLGCQICLTKAMDNMTVRVPDAVSDARESIDMGMNSSKIE [F101W] | 2.19 | 1.5 | 3.28 | 45.4 | -6.5
MAARLLRVASAALGDTAGRWRLLARPRAGAGGLRGSRGPGLGGGAVATRTLSVSGRAQSSSEDKITVHFINRDGETLTTKGKIGDSLLDVVVQNNLDIDGFGACEGTLACSTCHLIFEQHIWEKLEAITDEENDMLDLAYGLTDRSRLGCQICLTKAMDNMTVRVPDAVSDARESIDMGMNSSKIE [F122W] | 2.28 | 1.82 | 4.17 | 48.7 | -3.2
MAARLLRVASAALGDTAGRWRLLARPRAGAGGLRGSRGPGLGGGAVATRTLSVSGRAQSSSEDKITVHFINRDGETLTTKGKIGDSLLDVVVQNNLDIDGFGACEGTLACSTCHLIWEQHIFEKLEAITDEENDMLDLAYGLTDRSRLGCQICLTKAMDNMTVRVPDAVSDARESIDMGMNSSKIE [F117W] | 2.09 | 1.01 | 2.12 | 37.3 | -14.6
MAARLLRVASAALGDTAGRWRLLARPRAGAGGLRGSRGPGLGGGAVATRTLSVSGRAQSSSEDKITVHFINRDGETLTTKGKIGDSLLDVVVQNNLDIDGFGACEGTLACSTCHLIFEQHIFEKLEAITDEENDMLDLAWGLTDRSRLGCQICLTKAMDNMTVRVPDAVSDARESIDMGMNSSKIE [Y140W] |  |  |  | 51.2 | -0.7
MAARLLRVASAALGDTAGRWRLLARPRAGAGGLRGSRGPGLGGGAVATRTLSVSGRAQSSSEDKITVHWINRDGETLTTKGKIGDSLLDVVVQNNLDIDGFGACEGTLACSTCHLIFEQHIFEKLEAITDEENDMLDLAYGLTDRSRLGCQICLTKAMDNMTVRVPDAVSDARESIDMGMNSSKIE [F69W] |  |  |  | 46.6 | -5.3
